From the supplement of paper PMC7125110
± gives the standard error. For some of these results: Fewer inactive variants are shown than the library holds.

B1: glmS ribozyme (parent)
chain: AUAAAAGCGCCAGAACUACAGAAAUGUAGUUGACGAGGAGGAGGUUUAUCGAAUUUUCGGCGGAUGCCUCCAAA

Experiments:
Details in all cases: with glucosamine-6-phosphate
glucosamine-6-phosphate [1] = variants of: B1; assay: kcat; higher = faster cleavage; RNA array
Procedure, shortened: (§1)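 E. coli RNA polymerase transcribed barcoded ribozyme variants in situ on sequenced MiSeq chips, which were tracked via a hybridised Cy3 probe at 37 °C. Tiles were imaged over ~14 h after glucosamine-6-phosphate (40 μM to 10 mM) in HEPES/KCl/Mg(OAc)2 buffer was flowed in. Normalised per-tile medians were fit to one- or two-exponential decays for kobs, and kcat and KM came from weighted Michaelis–Menten fits.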

glucosamine-6-phosphate [2] = variants of: B1; assay: KM; higher = weaker cofactor use; RNA array
Procedure, shortened: as §1

glucosamine-6-phosphate [3] = variants of: B1; assay: self-cleavage kobs at 40 uM GlcN6P; higher = faster cleavage; RNA array
Procedure, shortened: as §1

glucosamine-6-phosphate [4] = variants of: B1; assay: self-cleavage kobs at 10000 uM GlcN6P; higher = faster cleavage; RNA array
Procedure, shortened: as §1

glucosamine-6-phosphate [5] = variants of: B1; assay: self-cleavage kobs at 160 uM GlcN6P; higher = faster cleavage; RNA array
Procedure, shortened: as §1

glucosamine-6-phosphate [6] = variants of: B1; assay: self-cleavage kobs at 640 uM GlcN6P; higher = faster cleavage; RNA array
Procedure, shortened: as §1

glucosamine-6-phosphate [7] = variants of: B1; assay: self-cleavage kobs at 2500 uM GlcN6P; higher = faster cleavage; RNA array
Procedure, shortened: as §1

Row | Variant | kcat (glucosamine-6-phosphate [1]) [s⁻¹] | KM (glucosamine-6-phosphate [2]) [µM] | self-cleavage kobs at 40 uM GlcN6P (glucosamine-6-phosphate [3]) [s⁻¹] | self-cleavage kobs at 10000 uM GlcN6P (glucosamine-6-phosphate [4]) [s⁻¹] | self-cleavage kobs at 160 uM GlcN6P (glucosamine-6-phosphate [5]) [s⁻¹] | self-cleavage kobs at 640 uM GlcN6P (glucosamine-6-phosphate [6]) [s⁻¹] | self-cleavage kobs at 2500 uM GlcN6P (glucosamine-6-phosphate [7]) [s⁻¹]
1 | AUAAAAGCGCCAGAACUACAGAAAUGUAGUUGACGAGGAGGAGGUUUAUCGAAAUUUCGGUGGAUGCCUCCAAA [U54A C61U] | 3.19e-05 ± 4.4e-07 | 1620 ± 86 | < 1e-05 | 2.74e-05 ± 1e-05 | – | – | –
2 | AUAAAAGCGCCAGAACUACAGAAAUGUAGUUGACGACGAGGAGGUUCAUCGAAUUUUCGGCGGAUGCCUCCAAA [G37C U47C] | < 1e-05 | – | < 1e-05 | – | < 1e-05 | – | –
3 | AUAAAAGCGCCAGAACUACAGAAAUGUAGUUAACGAGGAGGAGGUAUAUCGAAUUUUCGGCGGAUGCCUCCAAA [G32A U46A] | 0.000607 ± 2.1e-05 | – | – | 0.000226 ± 2.7e-05 | – | 2.22e-05 ± 1.1e-05 | 7.83e-05 ± 2.1e-05
4 | AUAAAAGCGCCAGAACUACAGAAAUGUAGUUGACGAGGAGGAGGUUUAUCGAAGCUUCGGCGGAUGCCUCCAAA [U54G U55C] | 0.00147 ± 0.0003 | 670 ± 280 | – | 0.00156 ± 0.00037 | 0.00036 ± 8.1e-05 | 0.000646 ± 9.5e-05 | 0.0012 ± 0.00027
5 | AUAAAAGCGCCAGAACUACAGAAAUGUAGUUGACGAGGAGGAAGUAUAUCGAAUUUUCGGCGGAUGCCUCCAAA [G43A U46A] | 1.87e-05 ± 2.1e-06 | – | < 1e-05 | – | – | – | –
6 | AUAAAAGCGCCAGAUCUACAGAAAUGUAGUUGACGAGGAGGUGGUUUAUCGAAUUUUCGGCGGAUGCCUCCAAA [A15U A42U] | 4.62e-05 ± 4.1e-06 | 1830 ± 680 | – | 3.96e-05 ± 1e-05 | – | – | –
7 | AUAAAAGCGUCUGAACUACAGAAAUGUAGUUGACGAGGAGGAGGUUUAUUGAAUUUUCGGCGGAUGCCUCCAAA [C10U A12U C50U] | 2.27e-05 ± 6.7e-06 | – | – | – | – | – | –
8 | AUAAAAGCGCCAGAACUACAGAAAUGUAGCUGACGAGGAGGAGGUUUAUUGAAUUUUCGGCGGAUGCCUCCAAA [U30C C50U] | < 1e-05 | – | – | – | – | – | –
9 | AUAAAAGCGCCAGAACUACAGAAAUGUAGUUGACGAGGAGGAGGUUUAUCGCAUUUUCGGCGGAUGAGUCCAAA [A52C C67A C68G] | 2.5e-05 ± 1.2e-05 | – | – | – | – | – | –
10 | AUAAAAGCGCCAGAACUACAGAAAUGUAGUUGACGAGGAGGAGGUUUAUCGAAUCUUCGGCGGAUGCCGCCAAA [U55C U69G] | 1.99e-05 ± 1.9e-06 | – | – | – | – | – | –
11 | AUAAAAGCGCCAGAAGUACAGAAAUGUAGUUGGCGAGGAGGAGGUUUAUCGAAUUUUCGGCGGAUGCCUCUAAA [C16G A33G C71U] | 1.51e-05 ± 7.7e-07 | 137 ± 30 | – | < 1e-05 | – | – | –
12 | AUAAAAGCGCCAGAACUACAGAAAUGUAGUUGACGAGGAGGAGGUUUAUCGAAUUUUCGGCGCAUGCCUACAAA [G63C C70A] | 1.89e-05 ± 5.1e-06 | – | – | – | – | – | –
13 | AUAAAAGCGCCAGAAUUACAGAAAUGUAGUUGACGAGGAGGAGGUUUAUCGAAUUUUCGGCGGAUGCUUCCAAA [C16U C68U] | 0.0026 ± 0.0006 | 1440 ± 460 | 8.07e-05 ± 5.9e-06 | 0.00235 ± 0.00021 | 0.000263 ± 2.9e-05 | 0.000649 ± 5.6e-05 | 0.00247 ± 0.00034
